B1: TPR t1 (parent)
chain: GACCAAUCUGCCCUCAGAGCUCGAGAACAUCUUCGGAUGCAGAGGAGGCAGGCUUCGGUGGCGCGAUAGCGCCAACGUCCUCAACCUCCAAUGCAUCCCACCACAUGAUGAUGCCUGAAGAGCCUUGGUUUUUUG

Variants of: B1
Test: polymerase ribozyme fitness, log enrichment relative to wild type (log ratio); higher = more active; in vitro selection for triplet polymerase activity
Method in brief: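 Mutant libraries of both subunits of a heterodimeric triplet polymerase ribozyme were PCR-built, transcribed, and selected once in triplicate, with frozen incubation at −7 °C and capture of gel-excised extended constructs on streptavidin beads before RT-PCR. Illumina sequencing of input and output libraries was filtered to genotypes with ≥10 input reads and ≥1 read per output. Fitness is the logarithm of genotype enrichment over wild-type enrichment, using inverse-variance-weighted replicate averages. The logarithm is base 2.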

Going from C22G C72G to C22U C114A, the “polymerase ribozyme fitness (log ratio)” value falls from -2.12 to -4.76.

First: C22A G61A
Second: C22A G39A
The “polymerase ribozyme fitness (log ratio)” value of the first is higher: -4.54 for the first, -5.08 for the second.

Going from C22U C56U C114U to C22U G45U C49A U106A, the “polymerase ribozyme fitness (log ratio)” value falls from -4.27 to -5.79.

Compared with C22U C64U, G23A G45A is lower in “polymerase ribozyme fitness (log ratio)” value: -3.81 for the first, -5.16 for the second.

First: C22G G110C C123G
Second: U21G G47A A100C U109A U112C A119G
The “polymerase ribozyme fitness (log ratio)” value of the first is higher: -5.98 for the first, -7.27 for the second.

Compared with G23C A46U C86A A119U G120A, G23A G71A is higher in “polymerase ribozyme fitness (log ratio)” value: -6.31 for the first, -5.75 for the second.

Compared with U21G G93A C114U, U21G U54C G58A U81A A91G A95U G113A U125G is lower in “polymerase ribozyme fitness (log ratio)” value: -3.41 for the first, -5.59 for the second.

First: C22G A50G C73G C94A G120C
Second: C22A A43U U106C C114U
The “polymerase ribozyme fitness (log ratio)” value of the first is lower: -4.89 for the first, -4.24 for the second.

First: C22A A26U
Second: C22A A43C U78C A83C C86U G113A
The “polymerase ribozyme fitness (log ratio)” value of the first is higher: -4.2 for the first, -5.47 for the second.

Compared with C22G U38G A43G G113U A119G, C22U A46C is higher in “polymerase ribozyme fitness (log ratio)” value: -4.22 for the first, -3.65 for the second.

First: G23A C56U G58C C70U C104G G122A
Second: C22A U129G
The “polymerase ribozyme fitness (log ratio)” value of the first is lower: -7.86 for the first, -6.22 for the second.

Compared with C22G G48C C85G U112G, U21G U87C C114U is higher in “polymerase ribozyme fitness (log ratio)” value: -3 for the first, -1.41 for the second.

Going from C22U G39U G60C C76U U78A C115G G127C to U21G A121U, the “polymerase ribozyme fitness (log ratio)” value rises from -6.22 to 0.0323.

First: C22A G51A G71C A111C
Second: C22A C72A U106A A118G
The “polymerase ribozyme fitness (log ratio)” value of the first is lower: -6.96 for the first, -3.71 for the second.

First: C22G U38G U87A C98G U112C C114A
Second: C22G C73A G93A
The “polymerase ribozyme fitness (log ratio)” value of the first is lower: -6.53 for the first, -4.3 for the second.

First: C22A G60C C73U
Second: C22A C49U C73G C124G
The “polymerase ribozyme fitness (log ratio)” value of the first is lower: -5.64 for the first, -4.49 for the second.

Going from C22A C101U U106C to C22U C72G C124U, the “polymerase ribozyme fitness (log ratio)” value rises from -5.01 to -3.08.

C22A C88U and C22G G42U are within 0.2 log units of each other in “polymerase ribozyme fitness (log ratio)” value: -4.66 for the first, -4.63 for the second.

Compared with G23C A26G C82U G120C, U21C G77C is higher in “polymerase ribozyme fitness (log ratio)” value: -4.02 for the first, -0.73 for the second.

First: C22A A37U
Second: U21C G77A C88U U106C G110A
The “polymerase ribozyme fitness (log ratio)” value of the first is lower: -5.66 for the first, -5 for the second.

Compared with C22G G69U U112A A118U, C22U G45U C72A is lower in “polymerase ribozyme fitness (log ratio)” value: -0.675 for the first, -4.82 for the second.

Going from C22A G52A G60A G117U C123U U131C to C22A C56G, the “polymerase ribozyme fitness (log ratio)” value rises from -6.69 to -4.66.

Going from C22G G117A A119G to U21G C40A U92A, the “polymerase ribozyme fitness (log ratio)” value falls from -1.55 to -2.98.

Going from U21C U55A U78A U131A to C22U A90G C101A C114A, the “polymerase ribozyme fitness (log ratio)” value falls from -0.459 to -5.96.

First: C22G G48A G69C U78A U87C
Second: G23A C73G
The “polymerase ribozyme fitness (log ratio)” value of the first is lower: -5.69 for the first, -3.9 for the second.

Compared with G23A C73A, C22U A84C is higher in “polymerase ribozyme fitness (log ratio)” value: -5.86 for the first, -4.07 for the second.

Compared with C22U A37G G61C C64A U112C U126G G128A, C22U U92G C94A C104G U109G G122A C123A U125A is lower in “polymerase ribozyme fitness (log ratio)” value: -6.8 for the first, -7.36 for the second.

Compared with C22G C34U U38A U54C A83C U106G U109A C114G, C22U C56A G69U U78C is higher in “polymerase ribozyme fitness (log ratio)” value: -6.61 for the first, -3.41 for the second.

Compared with C22U U55G C72A C79A C123A, C22A C72G A83G C115A is higher in “polymerase ribozyme fitness (log ratio)” value: -6.59 for the first, -5.56 for the second.

C22G C73U and U21C G61C are within 0.2 log units of each other in “polymerase ribozyme fitness (log ratio)” value: -2.27 for the first, -2.11 for the second.

Compared with C22A C40A C73A C123U, U21G A84C is higher in “polymerase ribozyme fitness (log ratio)” value: -4.93 for the first, -2.02 for the second.

Going from C22G A37U G69U U87G to C22G G51A U81A C115U U130A, the “polymerase ribozyme fitness (log ratio)” value falls from -2.42 to -5.32.

Compared with C22A G48U C49U C62G G69A A108G A111C, G23A A121U is higher in “polymerase ribozyme fitness (log ratio)” value: -6.98 for the first, -2.19 for the second.

First: C22U A74U C101A
Second: C22G A111C
The “polymerase ribozyme fitness (log ratio)” value of the first is lower: -5.04 for the first, -3.66 for the second.

First: C22A C70U G77C
Second: C22A G44U G93A C124U
The “polymerase ribozyme fitness (log ratio)” value of the first is lower: -6.73 for the first, -4.53 for the second.

Compared with U21G A37G A41U U78C G113U, U21G G71U G110U U112A is higher in “polymerase ribozyme fitness (log ratio)” value: -2.05 for the first, -1.83 for the second.

Compared with C22U G113A, C22U G113U is lower in “polymerase ribozyme fitness (log ratio)” value: -4.09 for the first, -5.27 for the second.

First: C22G G63A
Second: G23A C56U
The “polymerase ribozyme fitness (log ratio)” value of the first is lower: -4.12 for the first, -3.66 for the second.

First: C22A C73A
Second: C22G C40G G45A G47C C72G U112G U132A
The “polymerase ribozyme fitness (log ratio)” value of the first is higher: -4.25 for the first, -4.49 for the second.

Compared with C22A A83G U96A C114A, C22A C49U C73G is higher in “polymerase ribozyme fitness (log ratio)” value: -5.87 for the first, -4.03 for the second.

Compared with U21C U30G C31A G36C C124A, C22G U87A G113U is lower in “polymerase ribozyme fitness (log ratio)” value: -4.94 for the first, -6.04 for the second.

Compared with U21G G48C, C22U U96A is lower in “polymerase ribozyme fitness (log ratio)” value: -1.56 for the first, -4.62 for the second.
